Results taken from patent US7527809B2, “Polyhydroxyalkanoate-containing magnetic structure, and manufacturing method and use thereof” (Canon Kabushiki Kaisha, priority 2003, dated 2009).

Assay: PHA synthetic enzyme activity (CoA release, 5,5'-dithiobis-(2-nitrobenzoic acid))
Assay type: biochemical
Details: purified enzymes, Table 1
Source text: Measurement of activity of PHA synthetic enzyme may be performed by using various known methods. For example, the measurement may be performed by the following method that is based on a measuring principle in that CoA released during polymerization of 3-hydroxyacyl CoA by the catalytic action of PHA synthetic enzyme to obtain PHA forms a color with 5,5′-dithiobis-(2-nitrobenzoic acid). Reagent 1: bovine serum albumin (manufactured by Sigma) dissolved in 0.1 M Tris hydrochloride buffer (pH 8.0) 3.0 mg/ml; Reagent 2: 3-hydroxyoctanoyl CoA dissolved in 0.1 M Tris hydrochloride buffer (pH 8.0) in 3.0 mM; Reagent 3: Trichloroacetic acid dissolved in 0.1 M Tris hydrochloride buffer (pH 8.0) in 10 mg/ml; Reagent 4: 5,5′-dithiobis-(2-nitrobenzoic acid) dissolved in 0.1 M Tris hydrochloride buffer (pH 8.0) in 2.0 mM. First reaction (PHA synthesis reaction): 100 μl of Reagent 1 is added to 100 μl of a sample (enzyme) solution and mixed. […] 500 μl of Reagent 4 is added to 500 μl of the resultant supernatant and the resultant is incubated at 30° C. for 10 minutes and then measured for optical density (absorbance) at 412 nm. […]
The activity of each purified enzyme was measured according to the method described above. Further, protein concentration in the sample was determined using a micro BCA protein assay reagent kit (available from Pierce Chemical Inc.). […]

Activity: 2.1 U/ml
B1: Purified enzyme solution (2): purified PHA synthetic enzyme YN2-C1 from pYN2-C1 (protein)
chain: MSNKSNDELKYQASENTLGLNPVVGLRGKDLLASARMVLRQAIKQPVHSVKHVAHFGLELKNVLLGKSGLQPTSDDRRFADPAWSQNPLYKRYLQTYLAWRKELHDWIDESNLAPKDVARGHFVINLMTEAMAPTNTAANPAAVKRFFETGGKSLLDGLSHLAKDLVHNGGMPSQVNMGAFEVGKSLGVTEGAVVFRNDVLELIQYKPTTEQVYERPLLVVPPQINKFYVFDLSPDKSLARFCLRNNVQTFIVSWRNPTKEQREWGLSTYIEALKEAVDVVTAITGSKDVNMLGACSGGITCTALLGHYAAIGENKVNALTLLVSVLDTTLDSDVALFVNEQTLEAAKRHSYQAGVLEGRDMAKVFAWMRPNDLIWNYWVNNYLLGNEPPVFDILFWNNDTTRLPAAFHGDLIELFKNNPLIRPNALEVCGTPIDLKQVTADIFSLAGTNDHITPWKSCYKSAQLFGGNVEFVLSSSGHIQSILNPPGNPKSRYMTSTEVAENADEWQANATKHTDSWWLHWQAWQAQRSGELKKSPTKLGSKAYPAGEAAPGTYVHER
modifications: Pseudomonas cichorii YN2; FERM BP-7375
Relative activity: 4.1 U/mg protein
